The source of these data is patent publication US20090042782A1, “Diagnostic and therapeutic strategies for conditions associated with the FLJ13639 gene” (priority 2005, published 2009).

Type in all cases: cell-based
Experiment [1] relates to HL60/VCR (Vincristin resistant) cells. Put plainly: MTT viability assay. The settings on record: 48 h. As to the method: Viability assays by conventional MTT assay protocol (Promega) were performed at 48 h after the beginning of the experiment.
A general note: Tetrazolium assays rely on reduction of a dye to a coloured formazan, in cell work by metabolically active cells.

Experiment [2] concerns HL60 cells. Put plainly: JC-1 mitochondrial membrane potential staining, fluorescence microscopy. An excerpt:
FIG. 14A is a graphical representation of green/red fluorescence intensity ratio data measured for treatment of HL60/VDR cells (a vinctrisin resistant cell line) as indicated for the x-axis. * indicates statistical significance.
Disruption of the mitochondrial membrane potential (Δψm) is an early event associated with apoptosis and may be one of several factors responsible for cytochrome c release (17, 18). Using JC-1 mitochondrial potential sensor (Molecular Probes, Inc) staining and fluorescence microscopy, we analyzed the Δψm in VCR (vincristin) treated HL60 cells. In healthy cells, the dye accumulates and aggregates in mitochondria, where it fluoresces bright red. In apoptotic cells, however, it cannot enter mitochondria if the Δψm is altered and fluoresces bright green as a cytoplasmic monomer. Therefore, mitochondria depolarization is indicated by a decrease of the red/green fluorescence intensity ratio.

Experiment [3] relates to MCF7. Put plainly: Wound healing assay, breast cancer cells. The conditions noted are these: treated vs not treated. As to the method:
FIG. 12B is a wound healing assay as depicted in FIG. 12A performed on breast cancer cells.
(§1) This was performed by growing the cells to confluence and forming a “wound” by scoring the culture with a pipette tip. The cells were then treated with P1-TAT and assessed for their ability to close the gap between the two artificially created cell populations.

In experiment [4] the test system is H520 cells. Put plainly: Wound healing assay, lung cancer cells. The settings on record: treated vs not treated, 5 days. As to the method:
FIG. 12A is a photographic representation of a wound healing assay performed on lung cancer cell lines. The H520 cells were treated (or not treated) with the FLJP1-TAT and motility of cells was monitored through a light microscope to analyze closing of the created gap.
as §1

Experiment [5] deals with CD24 protein expression. Briefly: CD24 protein expression by immunofluorescence. The conditions noted are these: OM9;22 ALL cell line, 48 hours of treatment. An excerpt: (§2) The same results were obtained using the OVCAR3 ovarian cancer cell line (not shown).
Experiment [6] has as its system UoCB1 cells. Put plainly: Matrigel invasion assay. The conditions noted are these: 20 μg of P1-TAT for 48 h, treatment versus no treatment. From the text:
To perform the Matrigel invasion assay, cells were deposited on top of a matrigel well and chemoattractant (fetal bovine serum) solutions were positioned below the matrigel matrix. Only cells with an invasive potential will “travel” toward the chemoattractant solutions through the matrigel.

The subject of experiment [7] is HeLa cells. Briefly: Lactic acid production in culture medium. The conditions noted are these: treated for 3 days vs not treated. The method, then:
Mitochondria are well known for their essential role in cell respiration and apoptosis. Cancer cells are known to have altered mitochondrial respiration, where pyruvate is catabolized in the lactic acid fermentation pathway instead of being used in the Krebbs cycle in the mitochondria, which produces energy far more efficiently. […] Culture medium was tested for lactic acid levels.

In experiment [8] the test system is CD24 expression. Put plainly: CD24 expression by RT-PCR in leukemia cell lines incubated with P1-TAT. The method, then:
Reverse transcription was done in 20 μl containing a minimum of 1.25 μg of total RNA, 1 μl of 10 mM of deoxynucleotide triphosphate (NEB, Ipswitch, Mass.), 1 μl of 0.5 μg/μl oligo (dT) 18 (IDT, Coralville, Iowa), 1 μl of 40 U/μl ribonuclease inhibitor (Fermentas, Hanover, Md.), 2 μl of 10×reaction buffer (NEB), and 0.25 μl of 200 U/μl MMLV reverse transcriptase (NEB). After incubation with 1 μl of 5U μl RNase H (NEB) for 20 minutes, multiplex PCR reaction was carried out, allowing for simultaneous detection of CD24 and FLJ13639 expression levels. The primers are: CD 24 (resulting in an amplification product of 300 pb) forward: 5′[…]3′ (SEQ ID NO:12), reverse: 5′[…]3′ (SEQ ID NO:13). The primers for FLJ13639 P1 (resulting in an amplification product of 233 pb) are the same as those described in Example 1. The reactions were of an initial denaturation at 95° C. for 10 minutes, followed by 35 cycles: denaturation, 50 seconds at 95° C., annealing 50 seconds at 54° C. and extension 60 seconds at 75° C. Actin amplification was performed as an internal control, according to the following protocol: 15 seconds at 95° C., 30 seconds at 60° C. and 60 seconds at 75° C.
After 48 hours of incubation, cells were harvested, RNA was extracted and cDNA was used for CD24 expression assessment by RT-PCR.
as §2

Take `CC[C@]1(O)C[C@H]2CN(CCc3c([nH]c4ccccc34)[C@@](C(=O)OC)(c3cc4c(cc3OC)N(C=O)[C@H]3[C@@](O)(C(=O)OC)[C@H](OC(C)=O)[C@]5(CC)C=CCN6CC[C@]43[C@@H]65)C2)C1` [Vincristin, vincristin]: the cytotoxicity at 1 µM in experiment [1] (HL60/VCR, Vincristin 1 μM, read-out: reduction of cell viability) is 90%. Further, the “effect on cell viability” value in experiment [1] (Vincristin 0.1 μM) is “almost no effect”. In addition, the green/red fluorescence ratio result in experiment [2] (0.1 ug of VCR alone) is listed as “low green/red fluorescence ratio”; in experiment [2] (1 ug of VCR alone, p<0.01) it was “significant increase”.

B1: P1-TAT: recombinant FLJ13639/P1 protein in frame with HIV TAT protein transduction domain and 6×Histidine tag; amino acid sequence SEQ ID NO:5 (protein)
chain: MRGSHHHHHHGMASMTGGQQMGRDLYDDDDKDRWGSKLGYGRKKRRQRRRGGSTMSGYPYDVPDYAGSMAGTGLESLYRSVVWFAKGLREYTKSGYESACKDFVPHDLEVQIPGRVFLVTGGNSGIGKATALEIAKRGGTVHLVCRDQAPAEDARGEIIRESGNQNIFLHIVDLSDPKQIWKFVENFKQEHKLHVLINNAGCMVNKRELTEDGLEKNFAANTLGVYILTTGLIPVLEKEHDPRVITVSSGGMLVQKLNTNDLQSERTPFDGTMVYAQNKRQQVVLTERWAQGHPAIHFSSMHPGWADTPGVRQAMPGFHARFGDRLRSEAQGADTMLWLALSSAAAAQPSGRFFQDRKPVSTHLPLATASSSPAEEEKLIEILEQLAQTFK
With B1, the “motility / closing of the gap” value in experiment [3] is “significantly reduced the motility”; in experiment [4], “significantly reduced the motility”; in experiment [4] (listed as FLJ13639P1-TAT), “inhibited filling of the gap”. In addition, in experiment [5], the CD24 protein expression entry is listed as “down-regulated”. For the same molecule, the “decrease of invasion potential” value in experiment [6] was 2.4 fold. For the same molecule, the “level of lactic acid in culture medium” value in experiment [7] was “significantly lower level”. Moreover, in experiment [8] (OM9:22, ALL-1, K562, 207 cell lines, 20 μg of P1-TAT (data not shown)), the CD24 expression result is “marked CD24 down-regulation”. Further, the CD24 expression levels entry in experiment [8] (UoCB1 cell line, increasing amount of P1-TAT, 48 hours, RT-PCR) is listed as “inversely proportional”. In addition, in experiment [8] (UoCB1 cells, 20 μg of P1-TAT, six hours after incubation), the “CD24 levels, time-course” value is listed as “significantly downregulated”.
